Results taken from paper PMC4226571, “The E6AP Binding Pocket of the HPV16 E6 Oncoprotein Provides a Docking Site for a Small Inhibitory Peptide Unrelated to E6AP, Indicating Druggability of E6” (PLoS ONE, 2014).
Entries after “also recorded” stand apart in the source; their conditions may differ.

Columns and labels:
[1] = test system: wt HPV16 E6; assay: Mammalian two-hybrid assay, wt HPV16 E6; type: cell-based; details: HeLa; peptide-GAL4-BD + wt HPV16 E6-VP16-AD; relative to pACT control = 1.0; three experiments in duplicate
Excerpt: Results were obtained from three individual experiments, each performed in duplicates. Standard deviations are indicated. Asterisks above horizontal lines indicate statistically significant differences from pACT-transfected cells, with p-values of ≤0.001 (***). […] The horizontal line indicates 1.5-fold inhibition. Individual amino acid exchanges are indicated below each column. Error bars indicate standard deviation values. (D) Statistical analysis of the differential binding behaviour of HPV16 E6 mutants 16E6R55A and 16E6Y70A. […] Asterisks above the horizontal lines indicate statistically significant reductions of luciferase activities, with p-values of ≤0.01 (**) or ≤0.001 (***). Error bars indicate standard deviation values.
HeLa (HPV18-positive) and MRI-H-186 (HPV16-positive) cervical carcinoma cells, and H1299 lung cancer cells were grown in DMEM (pH 7.2), supplemented with 10% fetal bovine serum (Gibco Life Technologies, Carlsbad, CA, USA), 2 mM L-glutamine, 100 U/ml penicillin and 100 µg/ml streptomycin (Sigma-Aldrich, Saint Lois, MO). Plasmids were transfected by calcium phosphate co-precipitation as described. […] E6 constructs used in Figure 7C contain an additional flag-tag between E6 and the VP16-AD. Mutant derivatives of HPV16, HPV18 and HPV31 E6, as specified in the text, were generated by site directed mutagenesis and verified by DNA sequencing. […]

[2] = test system: HPV16 E6; details: ref [17]; cited from earlier work
Excerpt: In previous work, we therefore followed an alternative strategy to screen for E6 inhibitors. […] In order to identify possible structural determinants for this discrepancy, we compared the amino acid sequences of the contact region in HPV16 E6 with the corresponding domain of HPV18 E6.

[3] = biological target: T1, pep11** fused to the GAL4 DNA binding domain; assay: two-hybrid; details: partners not purified
T1 construct: also called pep11**-GAL4-BD
T1 chain: KEKEEYNSNCSCIACIGLI

[4] = biological target: T2, E6APpep fused to the GAL4 DNA binding domain (human); assay: two-hybrid; mammalian two-hybrid (CheckMate) in HeLa cells; peptides fused to GAL4-BD (pBIND), E6 proteins fused to VP16-AD (pACT); luciferase reporter pG5luc, normalized for pCMV-Gal; details: partners not purified
T2 construct: The functional row used hrGFP-E6APpep; also called E6APpep-GAL4-BD
T2 chain: IPESSELTLQELLGEERR

[5] = biological target: T3, wildtype HPV16 E6 fused to the VP16 transcriptional activation domain, P03126; assay: mammalian two-hybrid; details: chain shown with the change; HeLa cells; parent: est. 19; read off a plot
T3 chain: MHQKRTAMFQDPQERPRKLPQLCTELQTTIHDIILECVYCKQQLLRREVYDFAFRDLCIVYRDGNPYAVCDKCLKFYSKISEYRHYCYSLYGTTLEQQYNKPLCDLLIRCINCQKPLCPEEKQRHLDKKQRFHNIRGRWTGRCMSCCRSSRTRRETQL

In the case of KEKEEYNSNSSSIASIGLI [pep11**m], the “increase of luciferase activity (intracellular E6/peptide binding)” value [1] is given as “did not stimulate luciferase activities; also recorded: does not bind to HPV16 E6” and the “binding to HPV16 E6 (in words)” value [2] is given as “defective for E6 binding”.

B1: wildtype HPV16 E6 fused to the VP16 transcriptional activation domain (natural protein)
chain: MHQKRTAMFQDPQERPRKLPQLCTELQTTIHDIILECVYCKQQLLRREVYDFAFRDLCIVYRDGNPYAVCDKCLKFYSKISEYRHYCYSLYGTTLEQQYNKPLCDLLIRCINCQKPLCPEEKQRHLDKKQRFHNIRGRWTGRCMSCCRSSRTRRETQL
notes: source: HeLa, transfected (vector pACT), mammalian two-hybrid fusion
With B1 the “fold increase of luciferase activity over control-transfected cells” value [3] was ~19 fold and the “fold increase of luciferase activity over control-transfected cells” value [4] was ~3 fold.

In the case of KEKEEYNSNSSSIASIGLI [pep11** fused to the GAL4 DNA binding domain pep11**m], the response [5] is reported as 1 RLA.
